Consider 83 variants from the supplement of paper PMC7125110.

B1: glmS ribozyme (parent)
chain: AUAAAAGCGCCAGAACUACAGAAAUGUAGUUGACGAGGAGGAGGUUUAUCGAAUUUUCGGCGGAUGCCUCCAAA

± gives the standard error. Variants at the floor of the assay were thinned out.

The first series covers variants of B1. Put plainly: self-cleavage kobs at 10000 uM GlcN6P; higher = faster cleavage; RNA array. Particulars: with glucosamine-6-phosphate. The method in brief: (§1)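 Glucosamine-6-phosphate (40 μM to 10 mM) in HEPES/KCl/Mg(OAc)2 buffer was flowed over sequenced MiSeq chips, and tiles were imaged over ~14 h. Barcoded ribozyme variants there had been transcribed in situ by E. coli RNA polymerase and were tracked through a hybridised Cy3 probe at 37 °C. One- or two-exponential decay fits to per-tile medians, normalised to baseline and to non-cleaving reference variants, gave kobs. kcat and KM came from weighted Michaelis–Menten fits across concentrations.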
With C10U A15C U31C, the “self-cleavage kobs at 10000 uM GlcN6P” value was less than 1e-05 s⁻¹.

G35A G38U A53C C70U: the “self-cleavage kobs at 10000 uM GlcN6P” value is less than 1e-05 s⁻¹.

Regarding A15C C16G U56A C61G, the “self-cleavage kobs at 10000 uM GlcN6P” value is less than 1e-05 s⁻¹.

In the case of A6U C10U G44A C50U, the “self-cleavage kobs at 10000 uM GlcN6P” value was less than 1e-05 s⁻¹.

On to G29C U31A, for which the “self-cleavage kobs at 10000 uM GlcN6P” value worked out at 0.000731 ± 0.00017 s⁻¹.

Turning to G29A C58U C70U, the “self-cleavage kobs at 10000 uM GlcN6P” value came to 5.99e-05 ± 1.7e-05 s⁻¹.

On to G9C C34U, for which the “self-cleavage kobs at 10000 uM GlcN6P” value is less than 1e-05 s⁻¹.

Turning to C16A G41A G51C, the “self-cleavage kobs at 10000 uM GlcN6P” value is less than 1e-05 s⁻¹.

As to C11U U31G U54A, the “self-cleavage kobs at 10000 uM GlcN6P” value came out at 0.0029 ± 0.0008 s⁻¹.

As to A12C G26A G41A U54G, the “self-cleavage kobs at 10000 uM GlcN6P” value came out at 0.00044 ± 0.00012 s⁻¹.

Take A6C U31A G44A U65A: the “self-cleavage kobs at 10000 uM GlcN6P” value was less than 1e-05 s⁻¹.

On to C34U G43U U57G U65G, for which the “self-cleavage kobs at 10000 uM GlcN6P” value is less than 1e-05 s⁻¹.

With C8A A14U A15G G29A, the “self-cleavage kobs at 10000 uM GlcN6P” value was less than 1e-05 s⁻¹.

Turning to C8G U30A A39G G41C U54G C67A, the “self-cleavage kobs at 10000 uM GlcN6P” value was less than 1e-05 s⁻¹.

Turning to C10G C34A C67G, the “self-cleavage kobs at 10000 uM GlcN6P” value was 0.00066 ± 0.00026 s⁻¹.

On to G7C C34A A48G U56G C71U, for which the “self-cleavage kobs at 10000 uM GlcN6P” value was less than 1e-05 s⁻¹.

Turning to A14U C50G G62A A64G, the “self-cleavage kobs at 10000 uM GlcN6P” value is 0.000115 ± 2.4e-05 s⁻¹.

On to A14U C16G G32A U56G, for which the “self-cleavage kobs at 10000 uM GlcN6P” value amounted to 0.000337 ± 5e-05 s⁻¹.

On to A39G U45G C70A, for which the “self-cleavage kobs at 10000 uM GlcN6P” value was found to be 0.000127 ± 4.2e-05 s⁻¹.

C50G U54G U65G: the “self-cleavage kobs at 10000 uM GlcN6P” value was less than 1e-05 s⁻¹.

Take G9A G43A U57A U65A U69A C71A: the “self-cleavage kobs at 10000 uM GlcN6P” value is less than 1e-05 s⁻¹.

As to C16A G35C A64C, the “self-cleavage kobs at 10000 uM GlcN6P” value is less than 1e-05 s⁻¹.

As for U49A C70A, the “self-cleavage kobs at 10000 uM GlcN6P” value is less than 1e-05 s⁻¹.

As to A12G C58A C71A, the “self-cleavage kobs at 10000 uM GlcN6P” value came out at 5.83e-05 ± 1.4e-05 s⁻¹.

For the variant G43C C68U C70G C71U, the “self-cleavage kobs at 10000 uM GlcN6P” value is less than 1e-05 s⁻¹.

G38U A39U A42C A48U: the “self-cleavage kobs at 10000 uM GlcN6P” value was less than 1e-05 s⁻¹.

For the variant G7U G9U G44A C68G, the “self-cleavage kobs at 10000 uM GlcN6P” value was less than 1e-05 s⁻¹.

Consider G32U U57G, for which the “self-cleavage kobs at 10000 uM GlcN6P” value was determined as 5.4e-05 ± 1.4e-05 s⁻¹.

For the variant G7A G41A A53C, the “self-cleavage kobs at 10000 uM GlcN6P” value is less than 1e-05 s⁻¹.

Take A12U A15U C16A: the “self-cleavage kobs at 10000 uM GlcN6P” value was 0.00105 ± 0.00024 s⁻¹.

Consider C11U A12G U45G C67A, for which the “self-cleavage kobs at 10000 uM GlcN6P” value was found to be 5.25e-05 ± 1.6e-05 s⁻¹.

On to A14U A39C U65C, for which the “self-cleavage kobs at 10000 uM GlcN6P” value worked out at 6.04e-05 ± 1.6e-05 s⁻¹.

Regarding A42C U49C U57A, the “self-cleavage kobs at 10000 uM GlcN6P” value is less than 1e-05 s⁻¹.

G32U A53G C67G: the “self-cleavage kobs at 10000 uM GlcN6P” value was found to be 0.000238 ± 3.8e-05 s⁻¹.

As for A18C G38A C50U C58U G59U, the “self-cleavage kobs at 10000 uM GlcN6P” value is less than 1e-05 s⁻¹.

G29U G38A A42G U47G C71U: the “self-cleavage kobs at 10000 uM GlcN6P” value is less than 1e-05 s⁻¹.

On to A15C G35C C50G, for which the “self-cleavage kobs at 10000 uM GlcN6P” value was 4.99e-05 ± 1.2e-05 s⁻¹.

As to C10A A12G A52G C70A, the “self-cleavage kobs at 10000 uM GlcN6P” value amounted to 6.91e-05 ± 1.7e-05 s⁻¹.

Take G9A G60U C70G: the “self-cleavage kobs at 10000 uM GlcN6P” value is less than 1e-05 s⁻¹.

Turning to C10A C16U A52C, the “self-cleavage kobs at 10000 uM GlcN6P” value is less than 1e-05 s⁻¹.

Regarding G7A C34U A42C, the “self-cleavage kobs at 10000 uM GlcN6P” value is less than 1e-05 s⁻¹.

In the case of A14U U55C C67A C70A C71U, the “self-cleavage kobs at 10000 uM GlcN6P” value was less than 1e-05 s⁻¹.

Consider C11U U55G U65A, for which the “self-cleavage kobs at 10000 uM GlcN6P” value is 4.36e-05 ± 2e-05 s⁻¹.

Regarding G32U U45G U46C C67A, the “self-cleavage kobs at 10000 uM GlcN6P” value is 7.22e-05 ± 2e-05 s⁻¹.

On to A12G A14C A39C G44U G51U, for which the “self-cleavage kobs at 10000 uM GlcN6P” value was less than 1e-05 s⁻¹.

For the variant A48U C50G, the “self-cleavage kobs at 10000 uM GlcN6P” value was less than 1e-05 s⁻¹.

For A48U G62C C67G, the “self-cleavage kobs at 10000 uM GlcN6P” value is less than 1e-05 s⁻¹.

As to A12U C16G G40U, the “self-cleavage kobs at 10000 uM GlcN6P” value worked out at 0.000769 ± 0.00016 s⁻¹.

Regarding A14G C16A G40C G63U, the “self-cleavage kobs at 10000 uM GlcN6P” value is less than 1e-05 s⁻¹.

As for G40C G51C U57A, the “self-cleavage kobs at 10000 uM GlcN6P” value is less than 1e-05 s⁻¹.

Regarding C11U A64U C67G, the “self-cleavage kobs at 10000 uM GlcN6P” value was less than 1e-05 s⁻¹.

Turning to G41A A52U, the “self-cleavage kobs at 10000 uM GlcN6P” value worked out at 9.26e-05 ± 1.6e-05 s⁻¹.

U31C G41U A53G: the “self-cleavage kobs at 10000 uM GlcN6P” value was 0.000299 ± 8.8e-05 s⁻¹.

As to C8A C16U U31C G37U A39U A42U A48U, the “self-cleavage kobs at 10000 uM GlcN6P” value was less than 1e-05 s⁻¹.

With U30A A48G C68A, the “self-cleavage kobs at 10000 uM GlcN6P” value is less than 1e-05 s⁻¹.

In the case of A12C G29C C70U, the “self-cleavage kobs at 10000 uM GlcN6P” value was 0.00119 ± 0.00031 s⁻¹.

On to U31G G38C G40C G60C U69A C71A, for which the “self-cleavage kobs at 10000 uM GlcN6P” value was less than 1e-05 s⁻¹.

In the case of A33U A53C G62U, the “self-cleavage kobs at 10000 uM GlcN6P” value was less than 1e-05 s⁻¹.

As for A52C C67A, the “self-cleavage kobs at 10000 uM GlcN6P” value is 2.55e-05 ± 1.1e-05 s⁻¹.

On to A12U U47G A52U U69G, for which the “self-cleavage kobs at 10000 uM GlcN6P” value came to 6.72e-05 ± 3e-05 s⁻¹.

In the case of G13A G29A G63U, the “self-cleavage kobs at 10000 uM GlcN6P” value is less than 1e-05 s⁻¹.

Consider A42U U56C, for which the “self-cleavage kobs at 10000 uM GlcN6P” value came out at 5.38e-05 ± 1.2e-05 s⁻¹.

In the case of C8U G9U G37A C67G, the “self-cleavage kobs at 10000 uM GlcN6P” value was less than 1e-05 s⁻¹.

Take G35U G41U C67G: the “self-cleavage kobs at 10000 uM GlcN6P” value is less than 1e-05 s⁻¹.

For the variant A6U A12U C16U A36G, the “self-cleavage kobs at 10000 uM GlcN6P” value is less than 1e-05 s⁻¹.

As for G37C U54A, the “self-cleavage kobs at 10000 uM GlcN6P” value is 4.2e-05 ± 1e-05 s⁻¹.

The variants in a further series derive from B1. As to the kind of experiment: self-cleavage kobs at 2500 uM GlcN6P; higher = faster cleavage; RNA array. The following applies: with glucosamine-6-phosphate. In a few lines: as §1
G29C U31A: the “self-cleavage kobs at 2500 uM GlcN6P” value stood at 0.000502 ± 0.0001 s⁻¹.

C16G A52G U55G: the “self-cleavage kobs at 2500 uM GlcN6P” value turned out to be 9.56e-05 ± 4.1e-05 s⁻¹.

With C8A C16G G38A A64G C68A, the “self-cleavage kobs at 2500 uM GlcN6P” value was less than 1e-05 s⁻¹.

For the variant G7C U46A A52C, the “self-cleavage kobs at 2500 uM GlcN6P” value was less than 1e-05 s⁻¹.

A6U G44A U56A: the “self-cleavage kobs at 2500 uM GlcN6P” value was less than 1e-05 s⁻¹.

As to C50G C58A G66A, the “self-cleavage kobs at 2500 uM GlcN6P” value turned out to be 0.000121 ± 4.3e-05 s⁻¹.

In the case of A42U U45C A52G C70U, the “self-cleavage kobs at 2500 uM GlcN6P” value is less than 1e-05 s⁻¹.

On to A12U C34A A48U, for which the “self-cleavage kobs at 2500 uM GlcN6P” value was less than 1e-05 s⁻¹.

On to C16U G29C U55A, for which the “self-cleavage kobs at 2500 uM GlcN6P” value was determined as 0.00365 ± 0.00064 s⁻¹.

As for A12U C16U G43C G62C C70U, the “self-cleavage kobs at 2500 uM GlcN6P” value is less than 1e-05 s⁻¹.

C8U G60U C70G: the “self-cleavage kobs at 2500 uM GlcN6P” value was less than 1e-05 s⁻¹.

Consider A33C G35A U56A, for which the “self-cleavage kobs at 2500 uM GlcN6P” value is less than 1e-05 s⁻¹.

G29A U57G C70G: the “self-cleavage kobs at 2500 uM GlcN6P” value was 0.000123 ± 5e-05 s⁻¹.

As for C11U U31C G41U A64G C70A, the “self-cleavage kobs at 2500 uM GlcN6P” value is 0.0011 ± 0.0003 s⁻¹.

Consider C16U A39U U46C A64G C71G, for which the “self-cleavage kobs at 2500 uM GlcN6P” value turned out to be 9.88e-05 ± 3.4e-05 s⁻¹.

With U31G U54A C68U, the “self-cleavage kobs at 2500 uM GlcN6P” value came out at 0.000161 ± 5.7e-05 s⁻¹.

As for U47C U57C C71G, the “self-cleavage kobs at 2500 uM GlcN6P” value was less than 1e-05 s⁻¹.

Regarding A48G C58G G63A C70A, the “self-cleavage kobs at 2500 uM GlcN6P” value was found to be 7.77e-05 ± 3.7e-05 s⁻¹.
